These results are taken from patent US20060159697A1 (INSTITUT PASTEUR, published 2006).

In this test the target is human CD11b/CD18 (alphaM beta2 integrin) on transfected CHO cells (human, UniProt P11215 17-1152; P05107 23-769). In words: FACS competition on CHO-CD11b cells, competitor CyaA-biotin.

B1: CyaA 373-1706 (hemolytic moiety) (other)
chain: MGCGNSKFSPDVLETVPASPGLRRPSLGAVERQDSGYDSLDGVGSRSFSLGEVSDMAAVEAAELEMTRQVLHAGARQDDAEPGVSGASAHWGQRALQGAQAVAAAQRLVHAIALMTQFGRAGSTNTPQEAASLSAAVFGLGEASSAVAETVSGFFRGSSRWAGGFGVAGGAMALGGGIAAAVGAGMSLTDDAPAGQKAAAGAEIALQLTGGTVELASSIALALAAARGVTSGLQVAGASAGAAAGALAAALSPMEIYGLVQQSHYADQLDKLAQESSAYGYEGDALLAQLYRDKTAAEGAVAGVSAVLSTVGAAVSIAAAASVVGAPVAVVTSLLTGALNGILRGVQQPIIEKLANDYARKIDELGGPQAYFEKNLQARHEQLANSDGLRKMLADLQAGWNASSVIGVQTTEISKSALELAAITGNADNLKSVDVFVDRFVQGERVAGQPVVLDVAAGGIDIASRKGERPALTFITPLAAPGEEQRRRTKTGKSEFTTFVEIVGKQDRWRIRDGAADTTIDLAKVVSQLVDANGVLKHSIKLDVIGGDGDDVVLANASRIHYDGGAGTNTVSYAALGRQDSITVSADGERFNVRKQLNNANVYREGVATQTTAYGKRTENVQYRHVELARVGQVVEVDTLEHVQHIIGGAGNDSITGNAHDNFLAGGSGDDRLDGGAGNDTLVGGEGQNTVIGGAGDDVFLQDLGVWSNQLDGGAGVDTVKYNVHQPSEERLERMGDTGIHADLQKGTVEKWPALNLFSVDHVKNIENLHGSRLNDRIAGDDQDNELWGHDGNDTIRGRGGDDILRGGLGLDTLYGEDGNDIFLQDDETVSDDIDGGAGLDTVDYSAMIHPGRIVAPHEYGFGIEADLSREWVRKASALGVDYYDNVRNVENVIGTSMKDVLIGDAQANTLMGQGGDDTVRGGDGDDLLFGGDGNDMLYGDAGNDTLYGGLGDDTLEGGAGNDWFGQTQAREHDVLRGGDGVDTVDYSQTGAHAGIAAGRIGLGILADLGAGRVDKLGEAGSSAYDTVSGIENVVGTELADRITGDAQANVLRGAGGADVLAGGEGDDVLLGGDGDDQLSGDAGRDRLYGEAGDDWFFQDAANAGNLLDGGDGRDTVDFSGPGRGLDAGAKGVFLSLGKGFASLMDEPETSNVLRNIENAVGSARDDVLIGDAGANVLNGLAGNDVLSGGAGDDVLLGDEGSDLLSGDAGNDDLFGGQGDDTYLFGVGYGHDTIYESGGGHDTIRINAGADQLWFARQGNDLEIRILGTDDALTVHDWYRDADHRVEIIHAANQAVDQAGIEKLVEAMAQYPDPGAAAAAPPAARVPDTLMQSLAVNWR
For the molecule B1, the binding result is recorded as “binds”.
